Assay results: patent US8445444B2, “Compositions and methods for diagnosing, treating, and preventing prostate conditions” (Phigenix, Inc., priority 2007, dated 2013)
“Also recorded” adds a separate entry of the source.

Assays:
Type in all cases: cell-based, human
[1] = system: PC3; assay: MTT cell viability assay
Method: (§1) MTT Cell Viability Assay: To examine the effects of DEFB1 on cell growth, metabolic 3-[4,5-dimethylthiazol-2-yl]-2,5 diphenyl tetrazolium bromide (MTT) assays were performed. PC3, DU145 and LNCaP cells co-transfected with pVgRXR plasmid and pIND/DEFB1 construct or empty pIND vector were seeded onto a 96-well plate at 1-5×10^3 cells per well. Twenty-four hours after seeding, fresh growth medium was added containing 10 μM Ponasterone A daily to induce DEFB1 expression for 24-, 48- and 72 hours after which the MTT assay was performed according to the manufacturer's instructions (Promega). Reactions were performed three times in triplicate.
(§2) MTT Cytotoxicity Assay: DU145, PC3 and LNCaP cells (1×105) were transfected with 0.5 μg of the PAX2 siRNA pool or control siRNA pool using Codebreaker transfection reagent according to the manufacturer's protocol (Promega). Next, cell suspensions were diluted and seeded onto a 96-well plate at 1-5×10^3 cells per well and allowed to grow for 2-, 4- or 6 days. After culture, cell viability was determined by measuring the conversion of 3-[4,5-dimethylthiazol-2-yl]-2,5 diphenyl tetrazolium bromide, MTT (Promega), to a colored formazan product. Absorbance was read at 540 nm on a scanning multiwell spectrophotometer.
(§3) MTT cell viability assay: To examine the effects of hBD-1 on cell growth, metabolic 3-[4,5-dimethylthiazol-2-yl]-2,5-diphenyl tetrazolium bromide (MTT) assay was performed. DU145, LNCaP, PC3 and PC3/AR+ cells co-transfected with pvgRXR plasmid and pIND/hBD-1 construct or control pvgRXR plasmid were seeded onto a 96-well plate at 1-5×10^3 cells per well. Twenty-four hours after seeding, fresh growth medium was added containing 10 μM Pon A daily to induce hBD-1 expression for 24, 48 and 72 h after which the MTT assay was performed according to the manufacturer's instructions (Promega). Reactions were performed three times in triplicate.
(§4) MTT cytotoxicity assay: DU145, PC3 and LNCaP cell suspensions were diluted and seeded onto a 96-well plate at 1-5×10^3 cells per well. Next the cells were transfected, according to the manufacturer's protocol (Promega), with 5 pg/cell of the PAX2 siRNA pool, control siRNA pool, or the Codebreaker transfection reagent alone. All cells were allowed to grow for 2-, 4- or 6 days after treatment. Cell viability was then determined by measuring the conversion of 3-[4,5-dimethylthiazol-2-yl]-2,5 diphenyl tetrazolium bromide, MTT (Promega) to a colored formazan product. Absorbance was read at 540 nm on a scanning multi-well spectrophotometer.

[2] = system: DU145; assay: MTT cell viability assay
Method: as §1, §2, §3, §4

[3] = system: LNCaP; assay: MTT cell viability assay; details: DEFB1 (hBD-1) induction 24-72 h
Method: as §1, §2, §3, §4

[4] = system: PC3; assay: Pan-caspase detection (FAM-VAD-FMK, confocal); details: PC3, 24 h DEFB1 induction
Method: Detection of caspase activity in the prostate cancer cell lines was performed using APO LOGIX™ Carboxyfluorescin Caspase detection kit (Cell Technology, Mountain View, Calif.). Active caspases were detected through the use of a FAM-VAD-FMK inhibitor that irreversibly binds to active caspases. Briefly, DU 145 and PC3 cells (1.5-3×10^5) containing the DEFB1 expression system were plated in 35 mm glass bottom microwell dishes (Matek, Ashland, Mass.) and treated for 24 hours with media only or with media containing PonA as previously described. Next, 10 μl of a 30× working dilution of carboxyfluorescein labeled peptide fluoromethyl ketone (FAM-VAD-FMK) was added to 300 μl of media and added to each 35 mm dish. Cells were then incubated for 1 hour at 37° C. under 5% CO2. […] The fluorescent signal was analyzed using a confocal microscope (Zeiss LSM 5 Pascal) and a 63×DIC oil lens with a Vario 2 RGB Laser Scanning Module.
Pan-Caspase Detection: Detection of caspase activity in the prostate cancer cell lines was performed using APO LOGIX™ Carboxyfluorescin Caspase detection kit (Cell Technology, Mountain View, Calif.). Active caspases were detected through the use of a FAM-VAD-FMK inhibitor that irreversibly binds to active caspases. […] The fluorescent signal was analyzed using a confocal microscope (Zeiss LSM 5 Pascal) and a 63×DIC oil lens with a Vario 2 RGB Laser Scanning Module. […]

With “DEFB1: human beta defensin-1 expressed from the ecdysone inducible pIND/DEFB1 construct, induced with Ponasterone A (DHYNCVSSGGQCLYSACPIFTKIQGTCYRGKAKCCK; UniProt P60022 33-68, looked up)” the relative cell viability ([1]; PC3, 24 h DEFB1 (hBD-1) induction) was 56%, the relative cell viability ([1]; PC3, 48 h DEFB1 (hBD-1) induction) was 37% and the relative cell viability ([1]; PC3, 72 h DEFB1 (hBD-1) induction) was 29%. For the same substance, the relative cell viability ([2]; DU145, 24 h DEFB1 (hBD-1) induction, 10 μM Ponasterone A) was 72%, the relative cell viability ([2]; DU145, 48 h DEFB1 (hBD-1) induction) was 49% and the relative cell viability ([2]; DU145, 72 h DEFB1 (hBD-1) induction) was 44%. The “effect on cell viability” value [3] was “no significant effect” and the caspase activity [4] was “revealed caspase activity; also recorded: green staining”.
